How the values were obtained:
Test in all cases: ELISA, coated CR6261, P. pastoris medium
Settings in all cases: remark: other sources report otherwise
[1] = target: 181H9 (influenza A H1N1 A/Brisbane/59/2007)
[2] = target: 131D5 (influenza A H1N1 A/Brisbane/59/2007)
[3] = target: 275D4 (influenza A H1N1 A/Brisbane/59/2007)
[4] = target: 112F3 (influenza A H1N1 A/Brisbane/59/2007)
[5] = target: 134H10 (influenza A H1N1 A/Brisbane/59/2007)
[6] = target: 275G3 (influenza A H1N1 A/Brisbane/59/2007)
[7] = target: 112G6 (influenza A H1N1 A/Brisbane/59/2007)
[8] = target: 213C11 (influenza A H1N1 A/Brisbane/59/2007)
[9] = target: 239D2 (influenza A H1N1 A/Brisbane/59/2007)
[10] = target: 145F2 (influenza A H1N1 A/Brisbane/59/2007)
[11] = target: 193B6 (influenza A H1N1 A/Brisbane/59/2007)
[12] = target: 138F8 (influenza A H1N1 A/Brisbane/59/2007)
[13] = target: 301F11 (influenza A H1N1 A/Brisbane/59/2007)
[14] = target: 249B11 (influenza A H1N1 A/Brisbane/59/2007)
[15] = target: 191D5 (influenza A H1N1 A/Brisbane/59/2007)

B1: CR6261 (antibody, V domains shown)
VH: EVQLVESGAEVKKPGSSVKVSCKASGGPFRSYAISWVRQAPGQGPEWMGGIIPIFGTTKYAPKFQGRVTITADDFAGTVYMELSSLRSEDTAMYYCAKHMGYQVRETMDVWGKGTTVTVSS
VL: QSVLTQPPSVSAAPGQKVTISCSGSSSNIGNDYVSWYQQLPGTAPKLLIYDNNKRPSGIPDRFSGSKSGTSATLGITGLQTGDEANYYCATWDRRPTAYVVFGGGTKLTVLG
- CR6261 binding signal [1]: 311000
- CR6261 binding signal [2]: 345000
- CR6261 binding signal [3]: 327000
- CR6261 binding signal [4]: 450000
- CR6261 binding signal [5]: 592000
- CR6261 binding signal [6]: 115000
- CR6261 binding signal [7]: 544000
- CR6261 binding signal [8]: 667000
- CR6261 binding signal [9]: 570000
- CR6261 binding signal [10]: 499000
- CR6261 binding signal [11]: 207000
- CR6261 binding signal [12]: 348000
- CR6261 binding signal [13]: 117000
- CR6261 binding signal [14]: 145000
- CR6261 binding signal [15]: 124000

Reference: US20170189519A1
